Results on 10 substances are retold here after patent US7455978.

Sequence of MJ1267 (LivF)/α-fragment fusion protein (Q58663 1-257, tags or fused parts left off): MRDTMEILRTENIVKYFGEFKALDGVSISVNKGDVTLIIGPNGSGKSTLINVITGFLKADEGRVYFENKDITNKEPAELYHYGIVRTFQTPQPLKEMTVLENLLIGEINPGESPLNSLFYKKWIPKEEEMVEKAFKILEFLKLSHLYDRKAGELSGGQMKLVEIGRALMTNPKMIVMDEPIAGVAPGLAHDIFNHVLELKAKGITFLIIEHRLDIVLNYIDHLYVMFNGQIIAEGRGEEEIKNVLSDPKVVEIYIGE

This assay addresses ω-fragment of β-galactosidase [β-galactosidase: P00722]. Kind of assay: cell-based or functional assay.
For “GST/α-fragment fusion protein (from UniProt P08515 1-218; P00722 7-58)”, the β-gal Activity (units/cell), ONPG hydrolysis in cell lysates amounted to 134 units/cell. As to “MBP G32D/I33P/α-fragment fusion protein (from UniProt P0AEX9 27-392; P00722 7-58)”, the β-gal Activity (units/cell), ONPG hydrolysis in cell lysates is 14 units/cell. As for “MBP I33P/α-fragment fusion protein (from UniProt P0AEX9 27-392; P00722 7-58)”, the β-gal Activity (units/cell), ONPG hydrolysis in cell lysates was found to be 46 units/cell.

As for “MBP G32D/α-fragment fusion protein (from UniProt P0AEX9 27-392; P00722 7-58)”, the β-gal Activity (units/cell), ONPG hydrolysis in cell lysates came to 94 units/cell. Still for that read-out and setting: the value for “CFTR NBD1-D/α-fragment fusion protein (from UniProt P13569 419-655; P00722 7-58)” was 6 units/cell; that for “MJ1267 (LivF)/α-fragment fusion protein (from UniProt Q58663 1-257; P00722 7-58)” was 12 units/cell; that for “TRx/α-fragment fusion protein (from UniProt P0AA25 1-109; P00722 7-58)” was 159 units/cell. The same measure, in the same setting: the same measure for “MBP wild-type/α-fragment fusion protein (from UniProt P0AEX9 27-392; P00722 7-58)”: 102 units/cell; for “CFTR NBD1-B/α-fragment fusion protein (from UniProt P13569 404-644; P00722 7-58)”: 5 units/cell. With “Aβ (1-42) F19P/α-fragment fusion protein (from UniProt P05067 672-713; P00722 7-58)”, the β-gal activity, against the wild-type Aβ/α fusion worked out at 3 fold.
